Source: patent US20220242962A1 (APTEVO RESEARCH AND DEVELOPMENT, published 2022)
Numbering of substitutions follows the chain as printed. Each block holds one binder with its values, some of them ahead of it.

Key:
Full-length Human OX40 = biological target: T1, Full-length Human OX40 (human, UniProt P43489 29-277); assay: cell-based or functional assay
T1 sequence: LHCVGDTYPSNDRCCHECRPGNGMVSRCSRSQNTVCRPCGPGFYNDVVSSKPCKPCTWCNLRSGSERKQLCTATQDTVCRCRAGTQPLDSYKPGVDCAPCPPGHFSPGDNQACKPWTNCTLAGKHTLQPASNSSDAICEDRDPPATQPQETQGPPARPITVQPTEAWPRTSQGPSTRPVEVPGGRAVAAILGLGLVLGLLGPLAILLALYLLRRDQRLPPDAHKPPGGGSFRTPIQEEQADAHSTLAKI

Full-length Human 4-1BB = Full-length Human 4-1BB (human, UniProt Q07011 24-255); assay: cell-based or functional assay
Human OX40 ECD-AFH = biological target: T2, Human OX40 ECD-AFH (human); assay: SPR (Biacore 8K), construct captured, monovalent ECD
T2 construct: ECD'; entry includes the C-terminal tags; also called OXF003; Human OX40 ECD-avi-flag-his
T2 chain: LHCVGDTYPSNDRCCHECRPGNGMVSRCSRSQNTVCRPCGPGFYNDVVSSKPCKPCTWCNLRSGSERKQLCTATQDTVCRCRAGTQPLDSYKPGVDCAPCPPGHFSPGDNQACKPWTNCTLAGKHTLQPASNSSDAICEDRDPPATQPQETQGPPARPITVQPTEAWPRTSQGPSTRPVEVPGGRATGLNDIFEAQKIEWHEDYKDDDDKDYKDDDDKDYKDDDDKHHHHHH
Protocol: (§1) Mouse anti-human IgG (GE, BR-1008-39) at 25 μg/ml in 10 mM sodium acetate pH 5.0 was immobilized at a density of ˜10,000 response units (RU) onto each flow cell of a CM5 research-grade sensor chip (GE) by standard amine coupling chemistry. Each binding protein at approximately 100 nM in HBS-EP+ with 0.2% BSA buffer was captured in a flow cell with the immobilized anti-human IgG at a flow rate of 10 μL/min for 20 seconds, leaving one flow cell surface unmodified as the reference. Using a single-cycle kinetics mode, five different concentrations of ECD were sequentially injected through each flow cell at 30 μL/min for 300 seconds followed by a 600 second dissociation period. Regeneration was achieved by injection of 3 M MgCl₂ at a flow rate of 30 μL/min for 30 seconds followed by HBS-EP+ with 0.2% BSA buffer stabilization for 1 min.
(§2) Sensorgrams obtained from kinetic SPR measurements were analyzed by the double subtraction method. The signal from the reference flow cell was subtracted from the analyte binding response obtained from flow cells with immobilized or captured ligands. Buffer reference responses were then averaged from multiple injections. The averaged buffer reference responses were then subtracted from analyte binding responses, and the final double-referenced data were analyzed with Biacore T200 Evaluation software (2.0, GE), globally fitting data to derive kinetic parameters. All sensorgrams were fitted using a simple one-to-one binding model.
(§3) Using the BIACORE 8K SPR system, the affinity of these constructs for human and cyno 4-1BB, and human and cyno OX40 ECD, were determined using the methods described above. Monovalent binding affinity was determined by capturing the ADAPTIR™ bispecific construct on the chip and injecting monovalent ECD of the target at multiple concentrations.

Cyno OX40-AFH = biological target: T3, Cyno OX40-AFH (cynomolgus monkey); assay: as above
T3 construct: entry includes the tags; also called OXF005; cyno OX40 ECD
T3 chain: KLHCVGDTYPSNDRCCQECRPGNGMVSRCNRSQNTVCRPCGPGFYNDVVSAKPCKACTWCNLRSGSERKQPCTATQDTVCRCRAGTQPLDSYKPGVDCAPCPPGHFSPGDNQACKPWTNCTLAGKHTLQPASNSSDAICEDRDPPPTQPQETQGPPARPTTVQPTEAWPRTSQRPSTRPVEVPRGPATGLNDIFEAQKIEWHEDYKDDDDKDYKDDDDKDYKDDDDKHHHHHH
Protocol: as §1, §2, §3

Human 4-1BB ECD-AFH = biological target: T4, Human 4-1BB ECD-AFH (human); assay: as above
T4 construct: entry includes the tags; also called FOB003; HUMAN CD137 ECD-AVI-FLAG-HIS
Protocol: as §1, §2, §3

Cyno 4-1BB ECD-AFH = biological target: T5, Cyno 4-1BB ECD-AFH (cynomolgus monkey); assay: as above
T5 construct: entry includes the tags; also called FOB004; Cyno CD137 ECD-avi-flag-his
T5 chain: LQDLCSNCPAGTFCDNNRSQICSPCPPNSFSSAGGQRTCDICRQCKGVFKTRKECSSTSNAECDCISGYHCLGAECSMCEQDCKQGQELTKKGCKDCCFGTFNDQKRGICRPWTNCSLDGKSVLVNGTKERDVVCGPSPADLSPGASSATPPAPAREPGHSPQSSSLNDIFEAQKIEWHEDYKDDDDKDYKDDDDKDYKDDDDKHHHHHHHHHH
Protocol: as §1, §2, §3

Full-length Cyno 4-1BB = biological target: T6, Full-length Cyno 4-1BB (cynomolgus monkey, UniProt Q07011 24-255 (human entry)); assay: flow cytometry on Jurkat cells transfected with cynomolgus 4-1BB, goat anti-human Fc secondary antibody, MFI (Mean)
T6 construct: on Jurkat or CHO cells; also called FOB006; cynomolgus 4-1BB
T6 chain: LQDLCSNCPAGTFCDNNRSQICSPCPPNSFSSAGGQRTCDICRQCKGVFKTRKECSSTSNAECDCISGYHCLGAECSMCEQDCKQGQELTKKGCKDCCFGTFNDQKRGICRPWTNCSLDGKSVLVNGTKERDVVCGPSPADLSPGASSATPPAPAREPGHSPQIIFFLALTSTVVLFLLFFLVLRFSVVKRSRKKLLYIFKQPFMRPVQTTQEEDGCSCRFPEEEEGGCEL
Protocol: (§4) Serial dilutions of ADAPTIR™ constructs were incubated with transfected target cells and subsequently labelled with a fluorescently-conjugated goat-a-human Fc secondary antibody. […] (See Example 25.)

Full-length Cyno OX40 = biological target: T7, Full-length Cyno OX40 (cynomolgus monkey, UniProt P43489 29-277 (human entry)); assay: flow cytometry on CHOK1SV cells transfected with cynomolgus OX40, goat anti-human Fc secondary antibody, MFI (Mean)
T7 construct: on CHO-K1SV cells; also called OXF004; cynomolgus OX40
T7 chain: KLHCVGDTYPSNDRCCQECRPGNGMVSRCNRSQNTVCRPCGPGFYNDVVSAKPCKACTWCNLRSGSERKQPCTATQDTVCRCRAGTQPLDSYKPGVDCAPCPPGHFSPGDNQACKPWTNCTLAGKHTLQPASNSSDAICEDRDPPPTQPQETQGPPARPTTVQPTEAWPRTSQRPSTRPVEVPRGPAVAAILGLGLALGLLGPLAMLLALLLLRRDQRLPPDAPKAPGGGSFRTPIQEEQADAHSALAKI
Protocol: as §4

OX40 Reporter Assay EC50 (Full-length Human OX40): 0.012 nM
OX40 Reporter Assay Max induction (Full-length Human OX40): 6.12e+06
4-1BB Reporter Assay EC50 (Full-length Human 4-1BB): 0.015 nM
4-1BB Reporter Assay Max induction (Full-length Human 4-1BB): 1.38e+06
Kd (Human OX40 ECD-AFH): 0.4 nM
koff (Human OX40 ECD-AFH): 0.00039 s⁻¹
kon (Human OX40 ECD-AFH): 1e+06 M⁻¹ s⁻¹
Kd (Cyno OX40-AFH): 0.2 nM
koff (Cyno OX40-AFH): 0.00023 s⁻¹
kon (Cyno OX40-AFH): 950000 M⁻¹ s⁻¹
Kd (Human 4-1BB ECD-AFH): 18 nM
koff (Human 4-1BB ECD-AFH): 0.0046 s⁻¹
kon (Human 4-1BB ECD-AFH): 260000 M⁻¹ s⁻¹
Kd (Cyno 4-1BB ECD-AFH): 77 nM
koff (Cyno 4-1BB ECD-AFH): 0.0075 s⁻¹
kon (Cyno 4-1BB ECD-AFH): 97000 M⁻¹ s⁻¹
EC50 (read off the curve) (Full-length Cyno 4-1BB): ~0.3 nM
EC50 (read off the curve) (Full-length Cyno OX40): 1 to 2 nM
B1: FXX01120 (bispecific antibody)
chain: EVQLVQSGAEVKKPGASVKVSCKASGYTFTSYWMNWVRQAPGQGLEWMGNIYPSGGSTNYAQKFQGRVTMTVDTSTSTVYMELSSLRSEDTAVYYCASFSDGYYAYAMDYWGQGTLVTVSSGGGGSGGGGSGGGGSGGGGSEIVMTQSPATLSLSPGERATLSCRASQSVSSYLNWYQQKPGQAPRLLIYYASRRHTGIPARFSGSGSGTDFTLTISSLQPEDFAVYYCQQGYNLPYTFGQGTKVEIKEPKSSDKTHTCPPCPAPPAAAPSVFLFPPKPKDTLMISRTPEVTCVVVDVSHEDPEVKFNWYVDGVEVHNAKTKPREEQYNSTYRVVSVLTVLHQDWLNGKEYKCAVSNKALPAPIEKTISKAKGQPREPQVYTLPPSRDELTKNQVSLTCLVKGFYPSDIAVEWESNGQPENNYKTTPPVLDSDGSFFLYSKLTVDKSRWQQGNVFSCSVMHEALHNHYTQKSLSLSPGGGGSPSSYVLTQPPSVSVAPGKTARITCGGNNIGSKSVNWFQQKPGQAPVLVVYDDSGRPSGVPSRFSGSTSGNTATLTISRVEAGDEADYYCQVWDSSSDHVVFGGGTKLTVLGGGGSGGGGSGGGGSGGGGSQVQLVESGGGVVQPGRSLRLSCAASGFTLSYYGMHWVRQAPGKGLEWVAAISHDGSDKYYADSVKGRFTISRDNSKNRLYLQMNSLRAEDTAVYYCSNDQFDPWGQGTLVTVSSR
notes: ADAPTIR anti-4-1BB x anti-OX40, pI variant

OX40 Reporter Assay EC50 (Full-length Human OX40): 0.016 nM
OX40 Reporter Assay Max induction (Full-length Human OX40): 6.28e+06
4-1BB Reporter Assay EC50 (Full-length Human 4-1BB): 0.018 nM
4-1BB Reporter Assay Max induction (Full-length Human 4-1BB): 1.38e+06
Kd (Human OX40 ECD-AFH): < 1 nM
koff (Human OX40 ECD-AFH): 0.00031 s⁻¹
kon (Human OX40 ECD-AFH): 840000 M⁻¹ s⁻¹
Kd (Cyno OX40-AFH): < 1 nM
koff (Cyno OX40-AFH): 0.00024 s⁻¹
kon (Cyno OX40-AFH): 1.1e+06 M⁻¹ s⁻¹
Kd (Human 4-1BB ECD-AFH): 17 nM
koff (Human 4-1BB ECD-AFH): 0.0046 s⁻¹
kon (Human 4-1BB ECD-AFH): 270000 M⁻¹ s⁻¹
Kd (Cyno 4-1BB ECD-AFH): 80 nM
koff (Cyno 4-1BB ECD-AFH): 0.0077 s⁻¹
kon (Cyno 4-1BB ECD-AFH): 96000 M⁻¹ s⁻¹
EC50 (read off the curve) (Full-length Cyno 4-1BB): ~0.3 nM
EC50 (read off the curve) (Full-length Cyno OX40): 1 to 2 nM
B2: FXX01118 (bispecific antibody)
chain: B1 chain with V541I, S543A
notes: as for B1
